In the nanobody polyreactivity screen of Harvey et al. (2022):

Assay: yeast display, Sf9 membrane polyspecificity reagent, FACS + sequencing; frameworks hold sequencing errors
In short: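 Polyreactivity labels are assigned by the sorting gate from which each nanobody was recovered. The gates were low and high (top ~1%), set on anti-HA fluorescence for expression and streptavidin fluorescence for reagent binding. Before sorting, galactose-induced (36–48 hours) yeast display cells were stained for 1 hour at 4 °C with 10% biotinylated, detergent-solubilized Sf9 membrane reagent.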
With “QVQLVETGGGLVQAGGSLRLSSAASGFTFGTYAMGWYRQAPGKERELVAAITGSGVRTYYADSVKGRFTISRDIAKYTVFLQMNSLKPEDTAVYYCAADYVVPLAFWTFRFDYWGQGTQVTVSS” the “polyreactivity (PSR sort gate)” value was “low polyreactivity”.
For “QVQLVETGGGLVQAGGSLSLSCAASGSTSSRYAMGWYRQAPGKEMELVARINWNGGSTYYADSVKGRFTISRDNAKNTVYLQMNSLKPEDTAVYYCAADSFGITYVSYVSIYDFDYWGQGTQLTVSS”, the “polyreactivity (PSR sort gate)” value was “low polyreactivity”.
In the case of “QVQLVETGGGLVQAGGTLRLSCAASGRIFRRYAMVWYRQAPGKEREFVAAITDGSTYYADSVKGRFTISRDNAKNTVYLQMNSLNPEDPAVYYCATQFGWSYSRRFYYWGQGTQVTVSS”, the “polyreactivity (PSR sort gate)” value is reported as “high polyreactivity”.
In the case of “QVQLVETGGGLVQAGRSLRLSCAASGSNFRSYARGWYRQAPGKERELVAAITSSSGSTDYADSVKGRFTSSRDNAKNTVYLQMNSLKPEDTAVYYCNAPYWKSRFRAYYHWGQGTQVTVSS”, the “polyreactivity (PSR sort gate)” value is reported as “high polyreactivity”.
In the case of “QVQLVETGGGLVQAGVSHRLSFASSGSTFVEYVMGWYRQAPGKERELVARITWGGGITYYADSVKVRFTFSRDNAKNTVYLLMNRVNPEDNAVYYCAAGTITYGYGYDYWGQGTQVSVSS”, the “polyreactivity (PSR sort gate)” value is reported as “low polyreactivity”.
For “QVQLVETGGGLVQAGVSLRISCAASGRTFSVYTMGWYRQAPGKERELVAAIRGRGGSTYYADSVKGRFTISRDNAKNTVYLQMNSLKPEDTAVYYCAARASIFGATFDYWGQGTQVTVSS”, the “polyreactivity (PSR sort gate)” value was “high polyreactivity”.
In the case of “QVQLVETGGGLVQAGVSLRLSCAASGRIFEVNVMGWYRQAPGKERELVAAITTGGGSTYYADSVKGRFTISRDNAKNTVYLQMNSLKPEDTAVYYCATDYSSYLYDYYTGVGGYDYWGQGTQVTVSS”, the “polyreactivity (PSR sort gate)” value is reported as “low polyreactivity”.
For “QVQLVETGGGLVQARGSLRLSCAASGRTLPDNAMGWSRQAPGNESELVAAITTSGGSTYYADSVMGRFTISRDNAQNTVYLQLNSLKPEDTAVYYCAADIWQYSLIANYHPYDYWGQGTQVTVSS”, the “polyreactivity (PSR sort gate)” value was “low polyreactivity”.
With “QVQLVETGGVLVQAGGSLRLSCAASGITFYRYAMGWYRQAPGKERELVATITSGVSTFYADSVKGRFTISRDNAKNTVYLQMKSLKQEDTAVYFCAAESVWNWYYTTAGMDYWGLGTQVTVSS” the “polyreactivity (PSR sort gate)” value was “high polyreactivity”.
In the case of “QVQLVETGRGLLQAGGTLLLTCAASGSIYTYAMGWYKQAHGTQRELVAAISRSGGRTYYADSVKGRFTNSRDNAKNTVYLQMNSLKPEDTAVYYCAALLLKDYDYLGQGTQVTVSS”, the “polyreactivity (PSR sort gate)” value is reported as “low polyreactivity”.
In the case of “QVQLVEYGAALVKAGGSLRLSCAPSGSIFDFYVMGWYRQAPGKERELVAAISSGGSTYYADSVKGRFTISRDNAKNTVYLQMNSLKPEDSAVYYCAAYPEYVSGAWYDYWGLGTQVTVSS”, the “polyreactivity (PSR sort gate)” value is reported as “low polyreactivity”.
In the case of “QVQLVGSGGGLVQAGGSLRLSCAASGRIFSSSAMGWYRQAPGKERELVASIDWSDGSTYYADSVKGRFTISRDNAKNTVYLQRNSLKPEDTAVYYCAADFVPYLIYGYWGQGTQVTVSS”, the “polyreactivity (PSR sort gate)” value is reported as “low polyreactivity”.
For “QVQLVKSGGGLVQAGGSLRLICAASGSIFGYNTMGWYRQAPGKERELVATITYRGGSTYYADSVKGRFTISRDNAKNTVYLQMNSLKPEDTAVYYCARRVTRYPYTTWVSAGDYWGQGTQVTVSS”, the “polyreactivity (PSR sort gate)” value was “high polyreactivity”.
For “QVQLVKSGGGLVQAGGSLRLSCAASGRIFVGYVMGWYRQAPGKERELVAAIDSGGRTNYADSVKGRFTISRDNAKNTVYLQMNSLKPEDTAVYYCNREAAHGSLRWTEMEYWGQGTQVTVSS”, the “polyreactivity (PSR sort gate)” value was “low polyreactivity”.
For “QVQLVQSAVGLVQAGGSLRLICAASGITFLDNAMGWYRQAPGTERELVAAITSDGNPYYADCVKGRFTISRDNAKNTVYLQMNSLKPEDTAVYYCAVEVSDYYTYVSYDYCGQGTQVTVSS”, the “polyreactivity (PSR sort gate)” value was “low polyreactivity”.
With “QVQLVQSGGGLVQAGGRLSLSCAASGYIFFTNAMGWYRQAPGKERELVAAISSAGRTKYADSVKGRFTISRDNAKNTVYIQMNSLIPEDTAVYYCNKSFYYRWGTGYDYWGQGTQVTVSS” the “polyreactivity (PSR sort gate)” value was “low polyreactivity”.
In the case of “QVQLVQSGGGLVQAGGSLRLSCAASGGIFRTNPMGWYRQAPGQERALVATISRRGGSTYYADSVKGRFTISRDNAKNTVYFQMNSLKPEDTAVYYCAVEWYYTSNHIRFYRDNYWGQGTQVTVSS”, the “polyreactivity (PSR sort gate)” value is reported as “high polyreactivity”.
